The target in assay [1] is hMET.mmh (human) (UniProt P08581). The assay can be described thus: SPR Biacore T-200, antibody captured by anti-human Fc, 90 nM hMET.mmh, 25 C (second run). Background: SPR reads the build-up and loss of mass on a sensor chip optically.
Assay [2] concerns the target human MET on EBC-1, NCI-H441 and NCI-H358 cells (human) (UniProt P08581). As to the kind of experiment: cell binding assay on EBC-1 cells, n=1, gamma counting.

Non-binding isotype Control (antibody) registered an Antigen Bound in assay [1] of -1.46 RU/nm.
For the substance “non-specific DFO-Ab radioimmunoconjugate (antibody)”, the IR (%) (immunoreactivity, percent of activity bound to cells) in assay [2] came out at 2.8%.

For the origin of these results see US20210077638A1.
